± gives the uncertainty stated by the source.
Assay: self-splicing fitness, log relative to wild type (ln ratio); higher = more splicing; Tetrahymena group I intron in knt gene, E. coli kanamycin selection, DiMSum; sequences stand for … in CUCUCU…GGAGGGAAAAGUUAUCAGGCAUGCACCUGGUAGCUAGUCUUUAAACCAAUAGAUUGCAUCGGUUUAAAAGGCAAGACCGUCAAAUUGCGGGAAAGGGGUCAACAGCCGUUCAGUACCAAGUCUCAGGGGAAACUUUGAGAUGGCCUUGCAAAGGGUAUGGUAAUAAGCUGACGGACAUGGUCCUAACCACGCAGCCAAGUCCUAAGUCAACAGAUCUUCUGUUGAUAUGGAUGCAGUUCACAGACUAAAUGUCGGUCGGGGAAGAUGUAUUCUUCUCAUAAGAUAUAGUCGGACCUCUCCUUAAUGGGAGCUAGCGGAUGAAGUGAUGCAACACUGGAGCCGCUGGGAACUAAUUUGUAUGCGAAAGUAUAUUGAUUAGUUUUGGAGUACUCGUGGUCG
How it was run: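 A randomised library covering all eight P1ex-region intron nucleotides was built with the intron in the knt kanamycin-resistance gene on pET-22b(+) and held in E. coli BL21(DE3). Cells were grown overnight at 37°C or 30°C on LB agar, with or without 25 μg/mL kanamycin, plus 100 μg/mL carbenicillin, 50 μM IPTG and 0.2% rhamnose, and pooled colonies were amplicon-sequenced on an Illumina HiSeq 2500. DiMSum fitness is the error-weighted combination of wild-type-normalised replicate fold changes, kanamycin versus none.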

Sequence | self-splicing fitness (ln) (30 °C) | self-splicing fitness (ln) (37 °C)
GAGGAGCAAUAUUACGUGCU | -4.62 ± 0.42 | -2.32 ± 0.21
ACUGAGCAAUAUUACGACAA | -2.96 ± 0.2 | -2.4 ± 0.23
CCUCAGCAAUAUUACGGAAA | -3.7 ± 0.23 | -1.63 ± 0.17
CCUCAGCAAUAUUACGGGAC | -3.63 ± 0.23 | -1.98 ± 0.26
CAUCAGCAAUAUUACGAAGC | -3.23 ± 0.47 | -2.2 ± 0.41
AUGAAGCAAUAUUACGGGGC | -4.78 ± 0.26 | -2.48 ± 0.2
AAUCAGCAAUAUUACGACCG | -0.959 ± 0.098 | -0.795 ± 0.11
ACGAAGCAAUAUUACGAUAU | -3.39 ± 0.14 | -2.03 ± 0.14
GCGCAGCAAUAUUACGCUCG | -3.65 ± 0.38 | -2.89 ± 0.34
UAGUAGCAAUAUUACGAAAC | – | -2.13 ± 0.45
AACGAGCAAUAUUACGGCAU | -1.91 ± 0.1 | -0.446 ± 0.12
AGGUAGCAAUAUUACGUUGA | -2.893 ± 0.022 | -1.61 ± 0.035
UGCCAGCAAUAUUACGCCCU | -1.49 ± 0.11 | -0.167 ± 0.13
CCCCAGCAAUAUUACGCCUU | -3 ± 0.22 | -2.4 ± 0.37
UUGUAGCAAUAUUACGGUCG | -0.458 ± 0.12 | -0.593 ± 0.15
GCAUAGCAAUAUUACGGGAC | -2.49 ± 0.17 | -0.217 ± 0.14
CCGUAGCAAUAUUACGGCCU | -1.36 ± 0.14 | -2.7 ± 0.41
UGGAAGCAAUAUUACGAUAG | -2.51 ± 0.2 | -0.419 ± 0.17
GGGAAGCAAUAUUACGCAGC | -1.29 ± 0.14 | -1.12 ± 0.19

Sequence | self-splicing fitness (ln) (30 °C) | self-splicing fitness (ln) (37 °C)
GCCAAGCAAUAUUACGUAAC | -1.35 ± 0.087 | -0.157 ± 0.11
CACUAGCAAUAUUACGGUUG | -1.98 ± 0.087 | -1.38 ± 0.098
AUGCAGCAAUAUUACGCGAG | -3.82 ± 0.17 | -0.707 ± 0.11
GAUUAGCAAUAUUACGGUUA | -0.842 ± 0.14 | 0.0704 ± 0.15
AACCAGCAAUAUUACGGACA | -0.462 ± 0.077 | -0.0476 ± 0.095
CGCCAGCAAUAUUACGCGCC | -1.82 ± 0.27 | -1.15 ± 0.27
CUUGAGCAAUAUUACGAGAU | -3.68 ± 0.37 | -0.585 ± 0.15
ACAAAGCAAUAUUACGGUCG | -1.24 ± 0.055 | -0.228 ± 0.08
ACUUAGCAAUAUUACGGAGA | -3.19 ± 0.28 | -2.07 ± 0.2
CUUAAGCAAUAUUACGGGAU | -2.82 ± 0.17 | -1.94 ± 0.19
ACUUAGCAAUAUUACGUCUG | -1.82 ± 0.11 | -0.782 ± 0.15
ACGUAGCAAUAUUACGCCUU | -1.42 ± 0.064 | -0.00228 ± 0.076
GUAAAGCAAUAUUACGAAAA | -1.52 ± 0.15 | 0.0796 ± 0.28
AAGUAGCAAUAUUACGUAUC | -2.36 ± 0.14 | -1.15 ± 0.11
UCACAGCAAUAUUACGAGUC | -2.97 ± 0.15 | -3.01 ± 0.2
UGUAAGCAAUAUUACGCAUG | -1.95 ± 0.099 | 0.308 ± 0.14
GGAGAGCAAUAUUACGACGU | -1.29 ± 0.2 | -0.823 ± 0.25
GGGAAGCAAUAUUACGUGAU | -2.04 ± 0.1 | -1.83 ± 0.16
AGGUAGCAAUAUUACGUGAG | -1.02 ± 0.011 | -0.588 ± 0.032

From the supplement of paper PMC7877785
